The values that follow are results of earlier work, collected in PMC9133541.

In this data set the target is ExoS peptide (Pseudomonas aeruginosa) (UniProt G3XDA1). Put plainly: ITC. In general terms: Isothermal titration calorimetry measures the heat released or taken up as one component is titrated into another.
Chain of UniProt G3XDA1 (G3XDA1 whole entry): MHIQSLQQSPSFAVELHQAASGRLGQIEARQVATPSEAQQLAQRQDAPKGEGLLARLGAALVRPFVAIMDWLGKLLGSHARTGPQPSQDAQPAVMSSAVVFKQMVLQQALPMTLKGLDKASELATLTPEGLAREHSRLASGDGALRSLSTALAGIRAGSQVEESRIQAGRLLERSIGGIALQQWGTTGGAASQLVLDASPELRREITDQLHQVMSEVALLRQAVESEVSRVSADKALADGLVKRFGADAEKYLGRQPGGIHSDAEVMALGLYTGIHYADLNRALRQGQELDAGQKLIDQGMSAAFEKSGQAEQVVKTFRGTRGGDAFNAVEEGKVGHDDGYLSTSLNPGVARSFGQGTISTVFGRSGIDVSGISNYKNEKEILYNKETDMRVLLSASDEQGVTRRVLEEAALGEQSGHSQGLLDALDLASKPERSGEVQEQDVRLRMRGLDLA

The Kd is the equilibrium constant for the complex coming apart. For 14-3-3 sigma (from UniProt P31947), the dissociation constant Kd is 45.6 µM.
